The results in this text go back to article PMC1888729, “Control of Pre-mRNA Splicing by the General Splicing Factors PUF60 and U2AF^65” (PLoS ONE, 2007).

Series [1] deals with the molecule itself. The experiment in a line: SDS-PAGE and western blot; His-tagged PUF60 (~3.6 pmol) purified from HEK-293E cells, blot probed for PUF60. For orientation: Immunoblotting shows a protein as a band on a membrane.
Series [2] deals with the molecule itself. The experiment in a line: SDS-PAGE and western blot; heparin fraction of HeLa nuclear extract, blot probed for PUF60.

B1: His-tagged PUF60 (PUF60S, HEK-293E) (natural protein, human, UniProt Q9UHX1-2 1-542, looked up)
chain: MATATIALQVNGQQGGGSEPAAAAAVVAAGDKWKPPQGTDSIKMENGQSTAAKLGLPPLTPEQQEALQKAKKYAMEQSIKSVLVKQTIAHQQQQLTNLQMAAQRQRALAIMCRVYVGSIYYELGEDTIRQAFAPFGPIKSIDMSWDSVTMKHKGFAFVEYEVPEAAQLALEQMNSVMLGGRNIKVGRPSNIGQAQPIIDQLAEEARAFNRIYVASVHQDLSDDDIKSVFEAFGKIKSCTLARDPTTGKHKGYGFIEYEKAQSSQDAVSSMNLFDLGGQYLRVGKAVTPPMPLLTPATPGGLPPAAAVAAAAATAKITAQEAVAGAAVLGTLGTPGLVSPALTLAQPLGTLPQAVMAAQAPGVITGVTPARPPIPVTIPSVGVVNPILASPPTLGLLEPKKEKEEEELFPESERPEMLSEQEHMSISGSSARHMVMQKLLRKQESTVMVLRNMVDPKDIDDDLEGEVTEECGKFGAVNRVIIYQEKQGEEEDAEIIVKIFVEFSIASETHKAIQALNGRWFAGRKVVAEVYDQERFDNSDLSA
notes: PUF60S, the isoform of human PUF60 that lacks alternative exon 5; amplified from pGAD-GH-RoBPI-47,3 with the primers PUF60Hisstart and PUFresmutD; About 60% of the protein ran as an SDS-resistant dimer; also called recombinant PUF60; PUFS; source: HEK-293E, transiently transfected with pTT3-HisPUFS, purified (Ni-NTA agarose)
As to B1, in series [1], the “stoichiometry N” value was found to be 2.

B2: PUF60 (endogenous, heparin fraction of HeLa nuclear extract) (natural protein, human (endogenous in HeLa), UniProt Q9UHX1 1-559, looked up)
chain: MATATIALQVNGQQGGGSEPAAAAAVVAAGDKWKPPQGTDSIKMENGQSTAAKLGLPPLTPEQQEALQKAKKYAMEQSIKSVLVKQTIAHQQQQLTNLQMAAVTMGFGDPLSPLQSMAAQRQRALAIMCRVYVGSIYYELGEDTIRQAFAPFGPIKSIDMSWDSVTMKHKGFAFVEYEVPEAAQLALEQMNSVMLGGRNIKVGRPSNIGQAQPIIDQLAEEARAFNRIYVASVHQDLSDDDIKSVFEAFGKIKSCTLARDPTTGKHKGYGFIEYEKAQSSQDAVSSMNLFDLGGQYLRVGKAVTPPMPLLTPATPGGLPPAAAVAAAAATAKITAQEAVAGAAVLGTLGTPGLVSPALTLAQPLGTLPQAVMAAQAPGVITGVTPARPPIPVTIPSVGVVNPILASPPTLGLLEPKKEKEEEELFPESERPEMLSEQEHMSISGSSARHMVMQKLLRKQESTVMVLRNMVDPKDIDDDLEGEVTEECGKFGAVNRVIIYQEKQGEEEDAEIIVKIFVEFSIASETHKAIQALNGRWFAGRKVVAEVYDQERFDNSDLSA
notes: PUF60 of HeLa nuclear extract; Seen as a monomer and as an SDS-resistant dimer; also called FIR; RoBP1; source: endogenous, HeLa nuclear extract, fractionated (20-40% ammonium sulfate, CsCl gradient, Poros heparin column)
B2: the “stoichiometry N” value in series [2] was 2.

What is called stoichiometry N is a count of units in the complex or per binding partner.
